Common to all, as to assay: Octet BLI; biotinylated huDLL3-IgG1 fusion on streptavidin tips; single 50 nM trispecific, conditioned medium
Background: In BLI a coated tip is dipped into the sample, and binding shifts an interference pattern.

Assay [1] deals with T1, anti-DLL3 trispecific protein with DLL3 binding domain 51E05.
T1 construct: trispecific, one chain
The protocol:
(§1) Using the conditioned medium with known concentrations of the anti-DLL3 trispecific proteins, the relative binding affinities of the anti-DLL3 trispecific proteins toward human DLL3 protein were measured using a method where biotinylated version of human DLL3 protein were expressed as a human IgG1 fusion protein, and the binding affinity measurement was carried out in an Octet instrument with streptavidin tips.

The target in assay [2] is T2, anti-DLL3 trispecific protein with DLL3 binding domain 51F03.
T2 construct: trispecific, one chain; also called 51F3
As to the method:
as §1

Assay [3] concerns the target T3, anti-DLL3 trispecific protein with DLL3 binding domain 42D06.
T3 construct: trispecific, one chain
As to the method: as §1

For assay [4], the target named is T4, anti-DLL3 trispecific protein with DLL3 binding domain 51B01.
T4 construct: trispecific, one chain
The protocol: as §1

For assay [5], the target named is T5, anti-DLL3 trispecific protein with DLL3 binding domain 42C08.
T5 construct: trispecific, one chain
T5 sequence (chain, as listed by the source): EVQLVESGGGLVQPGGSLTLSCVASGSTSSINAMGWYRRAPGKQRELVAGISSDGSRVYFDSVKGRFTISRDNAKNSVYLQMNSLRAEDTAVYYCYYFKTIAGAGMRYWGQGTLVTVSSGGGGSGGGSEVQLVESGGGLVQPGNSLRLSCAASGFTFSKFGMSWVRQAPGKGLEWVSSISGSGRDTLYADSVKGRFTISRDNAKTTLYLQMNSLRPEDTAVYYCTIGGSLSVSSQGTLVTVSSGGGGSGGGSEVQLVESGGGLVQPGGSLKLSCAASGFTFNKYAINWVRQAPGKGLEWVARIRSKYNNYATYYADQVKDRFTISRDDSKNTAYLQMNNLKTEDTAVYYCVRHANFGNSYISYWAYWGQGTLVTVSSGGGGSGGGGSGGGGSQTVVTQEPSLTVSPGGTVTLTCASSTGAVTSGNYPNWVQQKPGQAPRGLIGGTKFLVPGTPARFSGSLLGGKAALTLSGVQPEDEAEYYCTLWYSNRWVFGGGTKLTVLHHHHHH
The protocol: as §1

For assay [6], the target named is T6, anti-DLL3 trispecific protein with DLL3 binding domain 42C11.
T6 construct: trispecific, one chain
T6 sequence (chain, as listed by the source): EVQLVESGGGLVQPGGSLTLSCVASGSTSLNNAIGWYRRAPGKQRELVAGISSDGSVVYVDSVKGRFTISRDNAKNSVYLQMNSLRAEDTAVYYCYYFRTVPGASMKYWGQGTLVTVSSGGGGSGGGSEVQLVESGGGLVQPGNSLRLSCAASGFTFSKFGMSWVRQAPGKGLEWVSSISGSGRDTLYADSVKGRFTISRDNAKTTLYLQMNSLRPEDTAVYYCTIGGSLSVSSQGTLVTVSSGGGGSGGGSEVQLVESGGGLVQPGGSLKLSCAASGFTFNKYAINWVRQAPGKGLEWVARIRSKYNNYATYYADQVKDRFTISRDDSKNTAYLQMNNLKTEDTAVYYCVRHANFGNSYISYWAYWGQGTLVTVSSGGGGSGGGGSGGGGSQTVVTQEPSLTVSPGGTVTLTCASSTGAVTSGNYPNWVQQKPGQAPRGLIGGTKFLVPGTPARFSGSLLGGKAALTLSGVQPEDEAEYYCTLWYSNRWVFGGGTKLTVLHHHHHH
As to the method: as §1

Assay [7] addresses T7, anti-DLL3 trispecific protein with DLL3 binding domain 42D05.
T7 construct: trispecific, one chain
As to the method: as §1

Assay [8] deals with T8, anti-DLL3 trispecific protein with DLL3 binding domain 42E02.
T8 construct: trispecific, one chain
The protocol: as §1

For assay [9], the target named is T9, anti-DLL3 trispecific protein with DLL3 binding domain 42C10.
T9 construct: trispecific, one chain
As to the method: as §1

The target in assay [10] is T10, anti-DLL3 trispecific protein with DLL3 binding domain 42F08.
T10 construct: trispecific, one chain
T10 sequence (chain, as listed by the source): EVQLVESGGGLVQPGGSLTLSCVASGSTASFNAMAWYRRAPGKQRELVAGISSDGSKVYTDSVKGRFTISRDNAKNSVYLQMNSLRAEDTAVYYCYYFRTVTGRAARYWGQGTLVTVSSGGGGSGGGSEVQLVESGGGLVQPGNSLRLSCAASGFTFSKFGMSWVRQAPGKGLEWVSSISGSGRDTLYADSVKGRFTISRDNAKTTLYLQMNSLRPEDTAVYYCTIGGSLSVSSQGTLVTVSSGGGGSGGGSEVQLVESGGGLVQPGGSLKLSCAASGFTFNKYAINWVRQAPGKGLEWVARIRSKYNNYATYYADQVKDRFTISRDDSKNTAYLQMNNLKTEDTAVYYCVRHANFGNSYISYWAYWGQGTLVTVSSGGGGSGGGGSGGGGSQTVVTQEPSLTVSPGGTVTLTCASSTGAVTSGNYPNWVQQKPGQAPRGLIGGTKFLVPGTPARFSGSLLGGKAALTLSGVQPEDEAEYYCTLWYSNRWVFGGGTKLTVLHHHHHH
The protocol:
as §1

For assay [11], the target named is T11, anti-DLL3 trispecific protein with DLL3 binding domain 53B05.
T11 construct: trispecific, one chain
T11 sequence (chain, as listed by the source): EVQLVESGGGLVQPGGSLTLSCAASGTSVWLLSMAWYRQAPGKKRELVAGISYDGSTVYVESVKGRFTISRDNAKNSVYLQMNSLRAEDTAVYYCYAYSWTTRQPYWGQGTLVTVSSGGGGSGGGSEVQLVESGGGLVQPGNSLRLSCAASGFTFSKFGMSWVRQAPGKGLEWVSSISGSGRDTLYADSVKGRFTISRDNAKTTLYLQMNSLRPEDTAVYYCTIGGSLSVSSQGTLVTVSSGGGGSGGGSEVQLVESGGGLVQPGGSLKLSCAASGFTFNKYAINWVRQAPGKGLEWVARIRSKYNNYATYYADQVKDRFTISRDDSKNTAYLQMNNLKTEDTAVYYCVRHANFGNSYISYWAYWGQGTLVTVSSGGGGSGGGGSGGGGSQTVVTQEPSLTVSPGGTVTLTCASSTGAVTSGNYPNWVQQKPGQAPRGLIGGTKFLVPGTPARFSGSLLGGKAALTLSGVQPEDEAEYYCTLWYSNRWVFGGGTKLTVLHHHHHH
As to the method: as §1

The target of assay [12] is T12, anti-DLL3 trispecific protein with DLL3 binding domain 42E07.
T12 construct: trispecific, one chain
The protocol: as §1

In assay [13] the target is T13, anti-DLL3 trispecific protein with DLL3 binding domain 41G01.
T13 construct: trispecific, one chain
T13 sequence (chain, as listed by the source): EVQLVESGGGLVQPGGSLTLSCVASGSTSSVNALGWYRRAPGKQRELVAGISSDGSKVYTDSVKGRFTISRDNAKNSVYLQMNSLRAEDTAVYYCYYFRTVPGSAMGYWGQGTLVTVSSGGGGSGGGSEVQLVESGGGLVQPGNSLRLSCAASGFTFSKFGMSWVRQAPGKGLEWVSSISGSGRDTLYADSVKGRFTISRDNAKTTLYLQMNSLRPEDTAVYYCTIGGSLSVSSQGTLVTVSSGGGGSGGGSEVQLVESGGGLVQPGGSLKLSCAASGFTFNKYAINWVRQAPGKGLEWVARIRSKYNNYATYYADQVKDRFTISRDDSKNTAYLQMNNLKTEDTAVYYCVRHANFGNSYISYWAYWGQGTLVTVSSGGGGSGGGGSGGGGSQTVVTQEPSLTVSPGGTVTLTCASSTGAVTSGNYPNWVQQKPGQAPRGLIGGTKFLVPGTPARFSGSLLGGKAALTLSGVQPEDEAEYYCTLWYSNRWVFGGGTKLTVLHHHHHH
As to the method: as §1

For assay [14], the target named is T14, anti-DLL3 trispecific protein with DLL3 binding domain 42D07.
T14 construct: trispecific, one chain
As to the method: as §1

For assay [15], the target named is T15, anti-DLL3 trispecific protein with DLL3 binding domain 42F01.
T15 construct: trispecific, one chain
As to the method: as §1

Assay [16] has as its target T16, anti-DLL3 trispecific protein with DLL3 binding domain 42C07.
T16 construct: trispecific, one chain
The protocol:
as §1

For assay [17], the target named is T17, anti-DLL3 trispecific protein with DLL3 binding domain 51E03.
T17 construct: trispecific, one chain
T17 sequence (chain, as listed by the source): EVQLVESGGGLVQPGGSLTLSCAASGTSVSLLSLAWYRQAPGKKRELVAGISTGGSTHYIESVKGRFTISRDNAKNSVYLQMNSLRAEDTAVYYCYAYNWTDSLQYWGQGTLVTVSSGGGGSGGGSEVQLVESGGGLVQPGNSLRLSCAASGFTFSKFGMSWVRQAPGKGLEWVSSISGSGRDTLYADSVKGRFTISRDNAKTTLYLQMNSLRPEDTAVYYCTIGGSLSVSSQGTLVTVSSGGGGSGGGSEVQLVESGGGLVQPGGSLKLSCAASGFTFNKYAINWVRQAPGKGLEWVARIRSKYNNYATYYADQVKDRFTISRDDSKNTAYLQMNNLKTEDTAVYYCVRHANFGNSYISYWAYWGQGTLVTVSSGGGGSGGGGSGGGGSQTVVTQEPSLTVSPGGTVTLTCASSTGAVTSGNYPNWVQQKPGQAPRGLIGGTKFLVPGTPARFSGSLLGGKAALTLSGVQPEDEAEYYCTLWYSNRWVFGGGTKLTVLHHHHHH
As to the method: as §1

From patent US20240141072A1 (published 2024) come the findings set out here.

By Kd is commonly meant a measure of binding affinity in units of concentration. A low value points to higher affinity.

T16 sequence (chain, as listed by the source): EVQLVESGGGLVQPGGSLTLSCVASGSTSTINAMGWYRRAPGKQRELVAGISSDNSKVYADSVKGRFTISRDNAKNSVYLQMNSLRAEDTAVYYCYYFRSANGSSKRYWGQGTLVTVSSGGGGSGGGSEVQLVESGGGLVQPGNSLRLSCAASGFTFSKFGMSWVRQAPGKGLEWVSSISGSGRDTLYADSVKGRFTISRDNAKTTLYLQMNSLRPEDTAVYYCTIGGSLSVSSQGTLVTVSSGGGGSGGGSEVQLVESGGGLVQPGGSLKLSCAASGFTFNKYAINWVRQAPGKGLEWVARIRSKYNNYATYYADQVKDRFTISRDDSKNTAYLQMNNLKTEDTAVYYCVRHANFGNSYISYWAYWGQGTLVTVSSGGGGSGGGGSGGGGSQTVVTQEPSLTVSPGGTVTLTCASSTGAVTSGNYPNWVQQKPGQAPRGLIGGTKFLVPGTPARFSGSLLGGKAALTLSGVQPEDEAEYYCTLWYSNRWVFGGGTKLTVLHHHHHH
T7 sequence (chain, as listed by the source): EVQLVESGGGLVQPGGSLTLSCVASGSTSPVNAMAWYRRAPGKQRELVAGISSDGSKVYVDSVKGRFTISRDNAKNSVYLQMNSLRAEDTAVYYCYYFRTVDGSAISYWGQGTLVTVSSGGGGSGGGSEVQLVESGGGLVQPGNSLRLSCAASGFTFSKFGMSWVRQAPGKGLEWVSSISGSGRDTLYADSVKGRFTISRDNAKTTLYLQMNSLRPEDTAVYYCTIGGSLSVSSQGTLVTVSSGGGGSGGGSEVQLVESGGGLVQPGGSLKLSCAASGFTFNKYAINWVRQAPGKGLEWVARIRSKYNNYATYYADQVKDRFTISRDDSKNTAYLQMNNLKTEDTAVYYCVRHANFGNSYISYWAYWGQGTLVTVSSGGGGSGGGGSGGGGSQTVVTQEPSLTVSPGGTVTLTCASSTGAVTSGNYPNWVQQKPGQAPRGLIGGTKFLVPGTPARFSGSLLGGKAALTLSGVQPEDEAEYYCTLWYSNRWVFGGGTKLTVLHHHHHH
T3 sequence (chain, as listed by the source): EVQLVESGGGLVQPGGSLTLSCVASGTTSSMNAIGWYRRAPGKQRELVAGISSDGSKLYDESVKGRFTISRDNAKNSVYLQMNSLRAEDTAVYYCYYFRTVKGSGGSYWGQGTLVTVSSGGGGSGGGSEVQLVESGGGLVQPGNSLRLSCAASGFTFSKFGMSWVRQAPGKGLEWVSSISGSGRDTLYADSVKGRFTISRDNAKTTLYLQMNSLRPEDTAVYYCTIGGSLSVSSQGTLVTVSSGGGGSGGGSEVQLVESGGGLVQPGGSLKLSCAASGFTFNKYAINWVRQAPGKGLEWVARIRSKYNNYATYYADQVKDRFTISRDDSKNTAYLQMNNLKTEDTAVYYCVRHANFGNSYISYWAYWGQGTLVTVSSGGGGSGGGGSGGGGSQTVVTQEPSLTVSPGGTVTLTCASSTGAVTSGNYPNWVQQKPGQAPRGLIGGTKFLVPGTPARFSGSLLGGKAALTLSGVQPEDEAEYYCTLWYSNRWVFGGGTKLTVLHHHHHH

B1: biotinylated human DLL3 protein expressed as a human IgG1 fusion protein (Fc fusion, not shown: a dimerising Fc or GST)
chain: AGVFELQIHSFGPGPGPGAPRSPCSARLPCRLFFRVCLKPGLSEEAAESPCALGAALSARGPVYTEQPGAPAPDLPLPDGLLQVPFRDAWPGTFSFIIETWREELGDQIGGPAWSLLARVAGRRRLAAGGPWARDIQRAGAWELRFSYRARCEPPAVGTACTRLCRPRSAPSRCGPGLRPCAPLEDECEAPLVCRAGCSPEHGFCEQPGECRCLEGWTGPLCTVPVSTSSCLSPRGPSSATTGCLVPGPGPCDGNPCANGGSCSETPRSFECTCPRGFYGLRCEVSGVTCADGPCFNGGLCVGGADPDSAYICHCPPGFQGSNCEKRVDRCSLQPCRNGGLCLDLGHALRCRCRAGFAGPRCEHDLDDCAGRACANGGTCVEGGGAHRCSCALGFGGRDCRERADPCAARPCAHGGRCYAHFSGLVCACAPGYMGARCEFPVHPDGASALPAAPPGLRPGDPQRYL
modifications: biotinylated
On to B1, for which the Kd came out at 0.97 nM in assay [1]; 1.4 nM in assay [2]; 1.5 nM in assay [3]; 1.6 nM in assay [4]; 1.8 nM in assay [5]; 2.3 nM in assay [6]. The Kd worked out at 2.7 nM in assay [7]; 2.9 nM in assay [8]; 3.2 nM in [9]; 3.2 nM in assay [10]; 0.6 nM in assay [11]; 3.9 nM in assay [12]. The Kd was found to be 4 nM in assay [13]; 5.3 nM in assay [14]; 5.5 nM in assay [15]; 6.4 nM in assay [16]; 7.2 nM in [17].
